T1: Recombinant human MerTK human Fc Chimera protein (R&D systems, Cat #391-MR-100) (human, UniProt Q12866 26-499, limits assumed)
T1 construct: Bought; also called recombinant human MerTK protein; MerTK-Fc
T1 sequence: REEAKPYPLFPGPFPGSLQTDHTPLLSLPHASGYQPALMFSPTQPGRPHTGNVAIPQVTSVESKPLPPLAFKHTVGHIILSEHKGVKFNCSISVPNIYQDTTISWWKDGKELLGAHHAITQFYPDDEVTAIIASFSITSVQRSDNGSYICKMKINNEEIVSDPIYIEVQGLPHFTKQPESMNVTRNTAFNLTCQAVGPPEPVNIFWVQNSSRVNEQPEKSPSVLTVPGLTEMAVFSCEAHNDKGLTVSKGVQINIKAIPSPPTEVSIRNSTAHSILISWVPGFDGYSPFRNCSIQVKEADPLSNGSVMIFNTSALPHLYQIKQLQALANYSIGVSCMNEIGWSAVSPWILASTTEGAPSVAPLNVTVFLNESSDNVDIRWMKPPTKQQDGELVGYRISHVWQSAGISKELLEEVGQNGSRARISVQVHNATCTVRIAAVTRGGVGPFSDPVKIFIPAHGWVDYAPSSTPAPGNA


Biological target: T1, Recombinant human MerTK human Fc …
Assay: competition ELISA: His-tagged Gas6 (3 ug/ml) binding to captured human MerTK-Fc, anti-His-HRP detection; blocked ligand Gas6
Method: Rabbit anti-human IgG polyclonal antibody (Jackson ImmunoResearch, Cat #309-005-008) was captured to a high-protein binding plate at 2 μg/ml 4° C. overnight. After washing with 0.05% Tween20 in PBS three times, 5% BSA in PBS was added for 1 hour. Recombinant human MerTK human Fc Chimera protein (R&D systems, Cat #391-MR-100) was added at 2 μg/ml for 1 hour and the plates were then washed. Anti-MerTK antibodies were titrated to final concentration range of between 66.6 nM to 4 pM and then 40 μl of serially diluted antibody and 40 μl of His tag-conjugated recombinant Gas6 protein (R&D systems, Cat #885-GSB-050) at 3 μg/ml or His tag-conjugated recombinant ProS protein (R&D systems, Cat #9489-PS-100) at 20 μg/ml. After a further incubation for 1 hour, plates were washed and incubated for 1 hour with HRP-conjugated anti-6×His tag antibody (Abcam, Cat #ab1187). Plates were then washed and an HRP substrate (TMB) was used to develop the plates. After sufficient color change was observed, the reaction was stopped by adding 50 μl 2N H₂SO₄ and the OD was measured using a spectrophotometer (BioTek).

IC50 (read off the curve)	Binder
~7 nM	MTK-16 (antibody, human IgG1, V domains shown) VH: LIQLVQSGPELKKPGETVKISCKASGYTFTNHGMNWVKQDPGKGLKWMGWINTYTGEPTYADDFKGRFVFSMETSASAAFLQINNLKNEDTATYFCARKGVTAARYFDYWGQGTTLTVSS VL: DIVMTQSPKFMSTSVGDRVSITCKASQNVRTAVAWYKKKPGQSPKALINLASNRHTGVPDRFTGSGSGTDFTLTISNVQSEDLADYFCLQHWNYPLTFGGGTKLEIK
~8 nM	MTK-07 (antibody, human IgG1, V domains shown) VH: DVQLQESGPGLVKPSQSLSLTCSVTGYSITSGYYWNWIRQFPGNTLEWMGYMSFDGDNKFNPSLKNRISITRDTSKNQFFLRLNSVTTEDTATYYCARGGYNYGSTEANWGQGTLVTVST VL: QIVLTQSPAIMSAFPGEKVTITCSASSSVTYMHWFQQKPGTSPKLWIFSTSNLASGVPARFSGSGSGTSYSLTISRMEAEDAATYYCQQRSSYPFTFGSGTKLEIK
~6 nM	MTK-21 (antibody, human IgG1, V domains shown) VH: QIQLVQSGPELKKPGETVKISCKASGYTFTNFGMTWVRQAPGMDLKWMGWINTYTGEPKYADDFKGRFALSLETSASTAYLQITNFKNEDTATYFCARGGGRLGLRPLDYWGQGTTLTVSS VL: DIQMTQTTSSLSASLGDRVTISCRASQDINNYLNWYQQKPDGTVKLLIYYTSSLHSGVPSRFSGSGSGTDYSLTITNLEQEDIATYFCQQGNTLPWTFGGGTRLEIK
